Test results published in patent US20070032417A1, “Peptides and therapeutic uses thereof” (priority 2002, published 2007).
Bridges are numbered along the chain shown (N, C = ends).

Target: GST tagged Bcl w delta C29 protein (UniProt Q92843)
Assay: AlphaScreen competition, GST detection; competitor biotinylated Bim BH3-26 peptide

- IC50: 0.3 nM
Binder: Ac-IWIAQELRRIGDEFNA-NH2 (linker 6-13 via ‑NHCH2C(═O)(CH2)2NH2‑)
